T1: RsmQ (Pseudomonas fluorescens SBW25 plasmid …, UniProt UPI00015066B5 1-62)
T1 sequence: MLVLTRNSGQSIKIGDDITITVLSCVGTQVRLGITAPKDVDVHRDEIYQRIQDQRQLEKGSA


System: RsmQ (Pseudomonas fluorescens SBW25 plasmid pQBR103)
Test: SPR
Details: 100 nM protein; mean of 0.445 and 0.102; listed as None 2; SPR (ReDCaT SA chip, Biacore 8K): 10 mM HEPES, 150 mM NaCl, 3 mM EDTA, 0.05% Tween 20, pH 7.4, 20 C; RsmQ 100 and 1000 nM (Fig 4: 100-1000 nM)

| Molecule | binding signal [%Rmax] |
| --- | --- |
| CCGCGCACCCAGCGCAAACCCTACCCTACGTCCTCCTGC [NoBind_HP_2] | 0.27 |

Same assay, conditions: 100 nM protein; mean of 102.98 and 94.19; SPR (ReDCaT SA chip, Biacore 8K): 10 mM HEPES, 150 mM NaCl, 3 mM EDTA, 0.05% Tween 20, pH 7.4, 20 C; RsmQ 100 and 1000 nM (Fig 4: 100-1000 nM)

| Molecule | binding signal [%Rmax] |
| --- | --- |
| CCGCGCAGGAAGCGCAAACCCTACCCTACGTCCTCCTGC [Bind_HP (GGA hairpin)] | 98.6 |

Same assay, conditions: SPR (ReDCaT SA chip, Biacore 8K): 10 mM HEPES, 150 mM NaCl, 3 mM EDTA, 0.05% Tween 20, pH 7.4, 20 C; RsmQ 100 and 1000 nM (Fig 4: 100-1000 nM)

| Molecule | binding signal [%Rmax] |
| --- | --- |
| CGCATCATTTACATGGAAGCGAGTAATCACCTACCCTACGTCCTCCTGC [PFLU3467] | < 50 |
| CACCAACCCTGCACGTGGAGAGAACAACACCTACCCTACGTCCTCCTGC [PFLU5567] | < 50 |
| GAAACATTCCGAACGGAGAAAAAACTGGCCCTACCCTACGTCCTCCTGC [PFLU2486] | < 50 |
| AACGGTTCAAATATTCAGAGGATCCAGCTCCTACCCTACGTCCTCCTGC [PFLU6118] | < 50 |
| AAGACCAGATCCAGGGATATGACGACGCACCTACCCTACGTCCTCCTGC [PFLU5652] | < 50 |
| CGCCCGTGATCCCATGGAAACTCGAAGACTCCTACCCTACGTCCTCCTGC [PFLU0998] | < 50 |
| TATAAGACTCGTACCCCGGAGCGCTCTCGCCTACCCTACGTCCTCCTGC [PFLU4968] | < 50 |
| GTGAGGACTTTAATGGACGACAACAAGAACCTACCCTACGTCCTCCTGC [PFLU1189] | < 50 |
| TCTGTAATGACCACGGAAAAAGTGAAGTACCTACCCTACGTCCTCCTGC [PFLU4891] | < 50 |
| TCATTACCCTGCAGGGACCAAATCAACTGCCTACCCTACGTCCTCCTGC [PFLU5860] | < 50 |
| ACTCAACCAGGAATAAGGAATACAAGAAACCTACCCTACGTCCTCCTGC [PFLU0296] | < 50 |
| TGCCCCCTTCAGATGGAGTTTCCCCCCGCCCTACCCTACGTCCTCCTGC [PFLU5986] | < 50 |
| TTCTAATCGCCTAAGGAGCATTGAGATGTCCTACCCTACGTCCTCCTGC [PFLU4548] | < 50 |
| GACATTAATCATATGGAGACACCCTCATGCCTACCCTACGTCCTCCTGC [PFLU4688] | < 50 |
| AGTCCTTTAGGCAAGGAGTTAATTGTCGTCCTACCCTACGTCCTCCTGC [PFLU5529] | < 50 |

Same assay, conditions: mean of 1.178 and 0.729; SPR (ReDCaT SA chip, Biacore 8K): 10 mM HEPES, 150 mM NaCl, 3 mM EDTA, 0.05% Tween 20, pH 7.4, 20 C; RsmQ 100 and 1000 nM (Fig 4: 100-1000 nM)

| Molecule | binding signal [%Rmax] |
| --- | --- |
| GGGAAAAAATGTGGGCGGGTCATACCGCCCCTTTTTTTCCTACCCTACGTCCTCCTGC [RsmZ 127-end] | 0.95 |

Same assay, conditions: up to 1000 nM protein; SPR (ReDCaT SA chip, Biacore 8K): 10 mM HEPES, 150 mM NaCl, 3 mM EDTA, 0.05% Tween 20, pH 7.4, 20 C; RsmQ 100 and 1000 nM (Fig 4: 100-1000 nM)

| Molecule | binding signal [%Rmax] |
| --- | --- |
| GAAGACTTCGGCATGGAAGCGGCGCGAACCCTACCCTACGTCCTCCTGC [PFLU4726] | > 50 |
| AACAATAATGCACATGGAGTAGCGTCGATGCCTACCCTACGTCCTCCTGC [PFLU0923] | > 50 |
| GGAAGTTTTACTAGGGAAGTTGCTATTGCCCTACCCTACGTCCTCCTGC [PFLU4443 (fleQ)] | > 50 |
| CGCCATTCTTCAAGGGAGAGCCGTGTGGCCCTACCCTACGTCCTCCTGC [PFLU1516] | > 50 |

Same assay, conditions: up to 1000 nM protein; highest of the genomic oligos; SPR (ReDCaT SA chip, Biacore 8K): 10 mM HEPES, 150 mM NaCl, 3 mM EDTA, 0.05% Tween 20, pH 7.4, 20 C; RsmQ 100 and 1000 nM (Fig 4: 100-1000 nM)

| Molecule | binding signal [%Rmax] |
| --- | --- |
| TTATTATTCGCCAGGGACGGCATTCGGGGCCTACCCTACGTCCTCCTGC [PFLU3378] | > 50 |

System: RsmQ H43A (Pseudomonas fluorescens SBW25 plasmid pQBR103)
Test: SPR
Details: 100 nM protein; listed as None 2; SPR (ReDCaT SA chip, Biacore 8K): 10 mM HEPES, 150 mM NaCl, 3 mM EDTA, 0.05% Tween 20, pH 7.4, 20 C; RsmQ 100 and 1000 nM (Fig 4: 100-1000 nM)

| Molecule | binding signal [%Rmax] |
| --- | --- |
| CCGCGCACCCAGCGCAAACCCTACCCTACGTCCTCCTGC [NoBind_HP_2] | -2.51 |

System: RsmQ R44A (Pseudomonas fluorescens SBW25 plasmid pQBR103)
Test: SPR
Details: 100 nM protein; listed as None 2; SPR (ReDCaT SA chip, Biacore 8K): 10 mM HEPES, 150 mM NaCl, 3 mM EDTA, 0.05% Tween 20, pH 7.4, 20 C; RsmQ 100 and 1000 nM (Fig 4: 100-1000 nM)

| Molecule | binding signal [%Rmax] |
| --- | --- |
| CCGCGCACCCAGCGCAAACCCTACCCTACGTCCTCCTGC [NoBind_HP_2] | -1.89 |

Target: T1, RsmQ
Test: SPR (ReDCaT); 500 nM protein; HBS-EP+ (10 mM HEPES, 150 mM NaCl, 3 mM EDTA, 0.05% v/v Tween 20, pH 7.4), 20 C, Biacore 8K, ReDCaT SA chip; high values mean tight binding
Details: protein: recombinant; tags: C-terminal TEV site + 6xHis; chain copies: 2

| Molecule | binding signal [%Rmax] |
| --- | --- |
| AACAATAATGCACATGGAGTAGCGTCGATG (ssDNA) [PFLU0923] | 76.5 ± 1.26 |
| TGCCCCCTTCAGATGGAGTTTCCCCCCGC (ssDNA) [PFLU5986] | 23.9 ± 0.356 |
| AAGACCAGATCCAGGGATATGACGACGCA (ssDNA) [PFLU5652] | 24.3 ± 0.196 |
| TCATTACCCTGCAGGGACCAAATCAACTG (ssDNA) [PFLU5860] | 23.7 ± 0.45 |
| CACCAACCCTGCACGTGGAGAGAACAACA (ssDNA) [PFLU5567] | 19.8 ± 0.479 |
| GAAACATTCCGAACGGAGAAAAAACTGGC (ssDNA) [PFLU2486] | 19.6 ± 0.424 |
| TCCAGTTTAGGCTTCTAAGGAGCACACCC (ssDNA) [PFLU4414] | 24 ± 0.491 |
| CAAAAATATAAATACCCGCGGGTGAAGTC (ssDNA) [PFLU2358] | 21.4 ± 0.255 |
| TTATTATTCGCCAGGGACGGCATTCGGGG (structured_DNA) [PFLU3378] | 130.9 ± 0.261 |
| GGAAGTTTTACTAGGGAAGTTGCTATTGC (ssDNA) [PFLU4443 (fleQ)] | 83.36 ± 0.145 |
| GTGAGGACTTTAATGGACGACAACAAGAA (ssDNA) [PFLU1189] | 24.64 ± 0.224 |
| CGCATCATTTACATGGAAGCGAGTAATCA (ssDNA) [PFLU3467] | 26.05 ± 0.116 |
| GACATTAATCATATGGAGACACCCTCATG (ssDNA) [PFLU4688] | 18.86 ± 0.102 |
| CCGCGCAGGAAGCGCAAAC (structured_DNA) [Bind_HP (GGA hairpin)] | 97.319 ± 0.0324 |
| TATAAGACTCGTACCCCGGAGCGCTCTCG (ssDNA) [PFLU4968] | 17.5 ± 0.242 |
| TCTGTAATGACCACGGAAAAAGTGAAGTA (ssDNA) [PFLU4891] | 28.28 ± 0.104 |
| ACTCAACCAGGAATAAGGAATACAAGAAA (ssDNA) [PFLU0296] | 29.5 ± 0.904 |
| AGTCCTTTAGGCAAGGAGTTAATTGTCGT (ssDNA) [PFLU5529] | 41.03 ± 0.156 |
| CTGCGCTCCCGATCCTGGATTTTCCGGCC (ssDNA) [PFLU5864] | 19.55 ± 0.081 |
| AACGGTTCAAATATTCAGAGGATCCAGCT (ssDNA) [PFLU6118] | 21.2 ± 0.215 |
| CGCCATTCTTCAAGGGAGAGCCGTGTGGC (ssDNA) [PFLU1516] | 63.68 ± 0.594 |
| CGCCCGTGATCCCATGGAAACTCGAAGACT (ssDNA) [PFLU0998] | 19.2 ± 0.463 |
| CCGCGCACGGAAGCGCAAAC (structured_DNA) [Full_Bind_HP (ACGGA hairpin)] | 61.28 ± 0.301 |
| TTCTAATCGCCTAAGGAGCATTGAGATGT (ssDNA) [PFLU4548] | 25.35 ± 0.144 |
| GAAGACTTCGGCATGGAAGCGGCGCGAAC (ssDNA) [PFLU4726] | 52.22 ± 0.504 |
| GGCCGCCCTCTCCGCTGATGGTCGTCTCG (ssDNA) [PFLU3427] | 14.53 ± 0.0808 |
